pKd: −log10 of the molar value.

The values below come from PMC5733473.

The series deals with SinR (Bacillus subtilis). The experiment in a line: EMSA. The conditions noted are these: EMSA: 15 mM Tris-Cl, 4 mM MOPS-KOH, 15 mM KCl, 50 mM NaCl, 0.8 mM MgCl2, 0.6 mM DTT, 12.5% glycerol, pH 7.8, 1 ug poly(dI-dC) in 16 ul, 20 fmol probe, 28 C ….

A word on the pKd: it is −log10 of the Kd, conventionally taken in molar units. High values mean a small Kd, low ones a large Kd. On to PkinB(-75/-7) delta5 G-45A, for which the pKd (SinR-2 site) is 8.00.

As for PkinB(-55/+10) WT, the pKd (SinR-2 site, binding stated) is under 7.00.

In turn, Fm0 PkinB(-39/+104) had a pKd (SinR-2 site, binding stated (also given as >100 nM)) of under 6.40.

In turn, Rm0 PkinB(-124/-38) showed a pKd (SinR-1 site) of 7.30.

Consider PkinB(-75/+10) G-45A, for which the binding signal (fold lower affinity) (SinR-1 site (upper band)) worked out at 2.

For the setting “SinR-2 site (SinR-1 not bound)”, PkinB(-75/+10) delta5 G-45A had a pKd of 8.00.

With PkinB(-31/+104), the pKd (SinR-2 site, binding stated) was under 7.00.
